From the supplement of paper PMC9732359
± gives the uncertainty stated by the source.

Test: protein stability index of a GFP-peptide fusion (yeast GPS) (PSI 1-4); higher = more stable; sorted into four equal gates, so the index is relative within each strain
Procedure, shortened: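 Tiled 17-residue yeast protein peptides were fused downstream of GFP in a plasmid that also expresses Cherry, and the pooled library was carried in yeast. Mid-log cultures in leucine-free medium were sorted into four equal gates by GFP/Cherry fluorescence ratio, and plasmids from each gate were PCR-amplified and Illumina-sequenced, with reads assigned to strains by barcodes. The protein stability index for each peptide was each gate's read frequency times its gate number, summed.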

Sequence	protein stability index (doa10∆)	protein stability index (pdr5∆)	protein stability index (san1∆)	protein stability index (ubr1∆)
LIRPSSKVIIKFLQVMQ [RPS22A]	1.86 ± 0.036	1.82 ± 0.03	2.02 ± 0.052	2.25 ± 0.034
RRVNQAIALLTIGAREA [RPS5]	3.21 ± 0.21	2.72 ± 0.21	2.6 ± 0.24	3.36 ± 0.22
AIYNNPTRIRTKSSKEF [RRI2]	1.41 ± 0.068	1.67 ± 0.06	1.68 ± 0.1	1.55 ± 0.061
DVDPEFYLKYVDIRVGK [RET1]	3.31 ± 0.28	2.79 ± 0.16	2.4 ± 0.14	2.54 ± 0.1
EPTVRIQAVFCLTKFQD [YCG1]	2.27 ± 0.05	2.53 ± 0.046	2.28 ± 0.063	2.78 ± 0.047
QKYNLLHVLPTLNSRAL [SNM1]	1.45 ± 0.084	1.74 ± 0.078	1.27 ± 0.18	1.56 ± 0.11
VFGASDKQAEGTPLFTF [YOR098C/NUP1]	2.83 ± 0.074	2.86 ± 0.087	3 ± 0.097	3.21 ± 0.081
NKITNQGVTCLHLAVGK [NAS6]	1.4 ± 0.2	1.83 ± 0.057		2.01 ± 0.075
SYVEPVLVASAKGLQTV [RPL31A]	2.2 ± 0.059	2.33 ± 0.08	2.23 ± 0.065	2.22 ± 0.082
NTEGSVVYEDSLELEKV [SNF2]	2.98 ± 0.063	2.94 ± 0.062	2.48 ± 0.095	3.01 ± 0.095
YKVDNMTRILPQQSRYI [RPN2]	2.29 ± 0.077	3.03 ± 0.12	2.5 ± 0.1	2.56 ± 0.099
QQQQQQQQQQQHIYPSS [GAL11]	2.691 ± 0.02	2.78 ± 0.02	2.693 ± 0.017	2.811 ± 0.018
GIRIKGKIVGFDEFMNV [SME1]	3.15 ± 0.068	2.96 ± 0.098	3.23 ± 0.076	3.12 ± 0.099
GSVSEETELFEPGVLNT [ECM29]	3.28 ± 0.16	3 ± 0.087	3.07 ± 0.096	2.67 ± 0.083
EDGLLEGLDELPKIIQL [SOH1]	3.11 ± 0.07	3.3 ± 0.047	3.12 ± 0.044	3.15 ± 0.051
VQGGNAAPSAADIKAVV [RPP2B]	3.01 ± 0.084	3.34 ± 0.07	2.88 ± 0.085	3.23 ± 0.075
KTYNCLHEKYLTEGGSI [SMC1]	3.03 ± 0.14	3.05 ± 0.072	2.52 ± 0.076	2.98 ± 0.069
DYVASLNELYQTQQDLP [NSL1]	3 ± 0.056	3.19 ± 0.052	3.12 ± 0.058	3.06 ± 0.039
ERYYELAFDKLNVPVFQ [ARP7]	1.87 ± 0.064	2.17 ± 0.073	1.83 ± 0.1	2.07 ± 0.07
RGFKVGLVCADTFRAGA [SRP54]	2.19 ± 0.22	2.25 ± 0.081		2.23 ± 0.11
PRLGSIDRNLKCQTCQE [RPO21]	2.01 ± 0.099	1.7 ± 0.056	2.18 ± 0.12	2.67 ± 0.069
IQEQRVKDKQSKVSDDS [RPN8]	1.97 ± 0.11	2.79 ± 0.13		2.92 ± 0.13
PIKADKDYSQILKEEFP [RPN5]	3 ± 0.1	2.46 ± 0.079	2.18 ± 0.13	2.69 ± 0.062
EVTAGEAQDEASLQQQQ [SNF6]	3.31 ± 0.17		3.29 ± 0.14	3.6 ± 0.27
MSKITSSQVREHVKELL [RPL1A]	1.59 ± 0.092	2.09 ± 0.065	2.45 ± 0.093	1.99 ± 0.051
KYLGLKPGSIDAISQVI [FAS1]	3.1 ± 0.081	3.1 ± 0.075	2.91 ± 0.048	3.01 ± 0.061
PSLRDRRERRLIFGTIA [RPT3]	1.41 ± 0.08	2.04 ± 0.099	1.63 ± 0.079	1.85 ± 0.07

Sequence	protein stability index (doa10∆)	protein stability index (pdr5∆)	protein stability index (san1∆)	protein stability index (ubr1∆)
DTSDIIVDPTAEQLKIS [RRP46]	1.79 ± 0.091	2.19 ± 0.097	2.73 ± 0.14	2.12 ± 0.092
QLENADTGTLDTKSVVG [RPN2]	3.09 ± 0.087	3.01 ± 0.082	3.08 ± 0.071	3.04 ± 0.075
DKKEMTIYNNIREGQNQ [SIR3]	3.21 ± 0.056	3.37 ± 0.07	3.02 ± 0.041	3.27 ± 0.034
QQAQAQAQAQAQAQAQA [GAL11]	2.78 ± 0.097	3.06 ± 0.17	2.92 ± 0.081	3.12 ± 0.12
NKLLRRKLMEMENILQR [YIL149C/MLP2]	3.41 ± 0.2		3.33 ± 0.11	
EEDVYLDPLARVSKDKK [FAS2]	3.5 ± 0.11	3.29 ± 0.11	3.46 ± 0.069	3.47 ± 0.061
VNDNPDIEAGDDDDNNE [DIS3]	3.46 ± 0.19	3.47 ± 0.14	2.73 ± 0.22	3.33 ± 0.089
AELKLAGEFGLKNKKEI [RPS9A]	3.08 ± 0.11	3.21 ± 0.15	3.2 ± 0.18	3.21 ± 0.12
DGNNANYIYAGYENGML [RPN14]	2.73 ± 0.1	2.75 ± 0.094	2.79 ± 0.083	2.96 ± 0.069
KGVGRRYSNLVCKKADV [RPS18A]	3.46 ± 0.2	2.37 ± 0.11	1.74 ± 0.1	2.49 ± 0.074
EHFSDEETYEEKPQFKD [RPO26]	3.51 ± 0.1	3.35 ± 0.2	3.25 ± 0.15	3.34 ± 0.1
GGSRGGGSNYMSNLPFG [RPC31]	2.94 ± 0.27	3.21 ± 0.18		3.14 ± 0.17
SQLNIQLSQDEHSQVEQ [SRP72]	3.17 ± 0.06	3.07 ± 0.047	3.16 ± 0.048	3.05 ± 0.066
GEEDAVDLLLEIESIDK [RPN1]	3.25 ± 0.11	3.08 ± 0.14	3.25 ± 0.08	3.33 ± 0.057
ESENFKIIALQPNEISF [RGR1]	2.39 ± 0.091	2.55 ± 0.11	2.54 ± 0.084	2.49 ± 0.075
CIFNFLQQQTPVTIWLF [SME1]	1.18 ± 0.069	1.47 ± 0.066	1.25 ± 0.084	1.15 ± 0.052
EGGKNQAELLQLAVKII [YJL039C/NUP192]	2.87 ± 0.12	3.28 ± 0.081	3.3 ± 0.2	2.72 ± 0.11
QDPKTLVALLSRDLWCF [SSN2]	1.39 ± 0.057	1.34 ± 0.043	1.31 ± 0.15	1.54 ± 0.073
ANEEPNTENVESVPTPA [ITC1]	2.87 ± 0.14	2.91 ± 0.11	2.98 ± 0.26	3.18 ± 0.15
KLYKTPIPIPAFADRLG [PRE10]	1.5 ± 0.11	1.29 ± 0.076	1.04 ± 0.18	1.46 ± 0.2
VFDKDGNYIKTENATEN [LIN1]				3.72 ± 0.28
LLSDPTITIKSYHLWPS [PRP8]	2.33 ± 0.063	2.62 ± 0.073	2.53 ± 0.094	2.51 ± 0.077
EPEEEKSKREEEAKSVL [ARP9]	3.15 ± 0.27	3.53 ± 0.29		3.25 ± 0.17
AMQYVCGDSIICNTLNI [SMC1]	1.57 ± 0.072	1.65 ± 0.065	1.5 ± 0.1	1.51 ± 0.071
VVDFKNKENDNVPSTKF [SNF12]	3.6 ± 0.19	3.23 ± 0.25	3.04 ± 0.14	
NRGVKLEIVYGYALRDV [RPP1]	2.54 ± 0.084	2.64 ± 0.077	2.46 ± 0.092	3.04 ± 0.065
KMLKIWTMAFRTMDDIK [ECM29]	2.03 ± 0.11	1.76 ± 0.1	2.06 ± 0.12	1.96 ± 0.075
